Results on nine substances are retold here after US20240294573A1, “CONSTRAINED PEPTIDES” (TearSolutions, Inc., priority 2019, published 2024).

Assay type in all cases: physicochemical
The nature of data set [1]: Circular dichroism of alkene constrained (stapled) Lacripep acetate salts in citrate buffer (Example 7). The note with it: 10 mM sodium citrate buffer pH 6.5, 0.2 mg/mL, 35° C. As to the method:
Alkene Constrained Analogs of Lacripep™ (SEQ ID NO:1) were synthesized with N-terminal acetylation and C-terminal amidation as an acetate salt. The compounds were reconstituted in 10 mM sodium citrate buffer, pH 6.5 for circular dichroism, with or without 10 mM n-DodecylPhosphoCholine (DPC). The resulting citric acid buffered solutions were tested for circular dichroism.
(§1) CD spectra were obtained using the Jasco 810 CD/ORD with Fluorescence Monochrometer in a 1 mm quartz cell from Starna Cells, Inc. Spectra were obtained at 35° C. from 250 nm to 190 nm in continuous scanning mode (scanning speed, 100 nm/min; data pitch, 0.1 nm; bandwidth, 1 nm; response time, 4 s) with a nitrogen flow rate of 100 mL/min. An average of 3 spectra were obtained for each sample (N=3).

Data set [2] in a line: Circular dichroism of cysteine disulfide constrained Lacripep acetate salts in citrate buffer (Example 8). The following applies: 10 mM sodium citrate buffer pH 6.5, 0.2 mg/mL, 35° C.; for helicity (CD spectra): absence of 10 mM DPC; for negative CD signal between 200 nm and 230 nm: presence of DPC (10 mM). As to the method: Cysteine Disulfide Constrained Analogs of Lacripep™ (SEQ ID NO:1) were synthesized with N-terminal acetylation and C-terminal amidation as an acetate salt. The compounds were reconstituted in 10 mM sodium citrate buffer, pH 6.5 for circular dichroism, with or without 10 mM DPC. The resulting citric acid buffered solutions were tested for circular dichroism.
as §1

Data set [3] is described as follows: Circular dichroism of Lacripep oleate salt vs acetate salt in citrate buffer (Example 3). The following applies: CD, 0.2 mg/mL, 10 mM sodium citrate buffer pH 6.5, 35° C. On the procedure: Lacripep™ (SEQ ID NO:1) was synthesized either without or with N-terminal acetylation and C-terminal amidation as an acetate salt. The compounds were reconstituted in 10 mM sodium citrate buffer, pH 6.5 for circular dichroism. Lacripep™ synthesized either without or with N-terminal acetylation and C-terminal amidation as an acetate salt was converted to an oleate salt by dissolving 1 equivalent of the Lacripep™ acetate salt and 4 equivalents of oleic acid (one oleic acid per lysine residue in Lacripep™) in a mixture of water buffered with citric acid to pH 6.5. The resulting solutions were then flash frozen and lyophilized under vacuum to remove the more volatile acetic acid. The lyophilized powder is suspended in water and the pH is adjusted to between 6.2 to 6.8 with citric acid and sodium citrate and the osmolality to between 250 to 350 mOsm/kg. […]
CD spectra were obtained using the Jasco 810 CD/ORD with Fluorescence Monochrometer in a 1 mm quartz cell from Starna Cells, Inc. Spectra were obtained at 35° C. from 250 nm to 190 nm in continuous scanning mode (scanning speed, 100 nm/min; data pitch, 0.1 nm; bandwidth, 1 nm; response time, 4 s) with a nitrogen flow rate of 100 mL/min. […]

A short description of data set [4]: Circular dichroism of Lacripep acetate salt vs dodecylphosphocholine form in phosphate buffer (Example 2). The note with it: CD, 0.2 mg/ml; for alpha helicity: 10 mM phosphate, 137 mM NaCl, 2.7 mM KCl buffer pH 7.4, 35° C., dpC forms with 10 mM dodecylphosphocholine; for irregular: phosphate buffer pH 7.4, 35° C., 10 mM dodecylphosphocholine. On the procedure: Lacripep™ (SEQ ID NO:1) was synthesized either without (unmodified, KQFIENGSEFAQKLLKKFS) or with (modified, Ac-KQFIENGSEFAQKLLKKFS-NH2)N-terminal acetylation and C-terminal amidation as an acetate salt. The compounds (0.2 mg/ml) were reconstituted in 10 mM phosphate, 137 mM NaCl, 2.7 mM KCl buffer, pH 7.4 with 10 mM dodecylphosphocholine for circular dichroism. CD spectra were obtained using the Jasco 810 CD/ORD with Fluorescence Monochrometer in a 1 mm quartz cell from Starna Cells, Inc. Spectra were obtained at 35° C. from 250 nm to 190 nm in continuous scanning mode (scanning speed, 100 nm/min; data pitch, 0.1 nm; bandwidth, 1 nm; response time, 4 s) with a nitrogen flow rate of 100 mL/min. An average of 3 spectra were obtained for each sample (N=3). Analysis of the dichroism spectra can use methods known in the art, including, DichroWeb: On-line analysis for protein Circular Dichroism spectra; Whitmore, L. and Wallace, B. A. (2008) Biopolymers 89: 392-400; Whitmore, L. and Wallace, B. A. (2004) Nucleic Acids Research 32: W668-673, each of which is incorporated by reference herein in its entirety.

Bridge positions count the residues as written; N and C are the ends. Square brackets hold non-standard residues; d marks the D form. Ends that are not written are not given here. 2‑(7-octenyl)alanine = olefinic alpha-amino acid with 7-octenyl side chain, staple residue; 2‑(4-pentenyl)alanine = 2-(4-pentenyl)alanine

As for “Ac-KQ [2-(7-octenyl) alanine]-IENGSE-[2-(4-pentenyl) alanine]-AQKLLKKFS-NH2 (Ac-KQ[2‑(7-octenyl)alanine]IENGSE[2‑(4-pentenyl)alanine]AQKLLKKFS-NH2; staple 3-10; listed as Homo sapiens) [SEQ ID NO: 59]”, in data set [1] (presence of 10 mM DPC), the “negative CD signal between 200 nm and 230 nm” value is recorded as “approximately −50 Δε”.

As for “Ac-KQF C(S-)EN C(S-)SE FAQ KLL KKF S-NH2 (Ac-KQFCENCSEFAQKLLKKFS-NH2; disulfide 4-7; SMILES CC(=O)N[C@@H](CCCCN)C(=O)N[C@@H](CCC(N)=O)C(=O)N[C@@H](Cc1ccccc1)C(=O)N[C@H]1CSSC[C@@H](C(=O)N[C@@H](CO)C(=O)N[C@@H](CCC(=O)O)C(=O)N[C@@H](Cc2ccccc2)C(=O)N[C@@H](C)C(=O)N[C@@H](CCC(N)=O)C(=O)N[C@@H](CCCCN)C(=O)N[C@@H](CC(C)C)C(=O)N[C@@H](CC(C)C)C(=O)N[C@@H](CCCCN)C(=O)N[C@@H](CCCCN)C(=O)N[C@@H](Cc2ccccc2)C(=O)N[C@@H](CO)C(N)=O)NC(=O)[C@H](CC(N)=O)NC(=O)[C@H](CCC(=O)O)NC1=O; listed as Homo sapiens) [SEQ ID NO: 72]”, in data set [2], the “helicity (CD spectra)” value is listed as “significant helicity”; the “negative CD signal between 200 nm and 230 nm” value is reported as −20 to −30 Δε.

In the case of “Ac-KQF IEN C(S-)SE C(S-)AQ KLL KKF S-NH2 (Ac-KQFIENCSECAQKLLKKFS-NH2; bridge 7-10; not fully specified (bridges); printed as Ac-KQF IEN C(S-)SE C(S-)AQ KLL KKF S-NH2; listed as Homo sapiens) [SEQ ID NO: 70]”, the “helicity (CD spectra)” value in data set [2] was “significant helicity”.

Consider “Ac-KQF IEN GSE FAQ KC(S-)L KC(S-)F S-NH2 (Ac-KQFIENGSEFAQKCLKCFS-NH2; disulfide 14-17; SMILES CC[C@H](C)[C@H](NC(=O)[C@H](Cc1ccccc1)NC(=O)[C@H](CCC(N)=O)NC(=O)[C@H](CCCCN)NC(C)=O)C(=O)N[C@@H](CCC(=O)O)C(=O)N[C@@H](CC(N)=O)C(=O)NCC(=O)N[C@@H](CO)C(=O)N[C@@H](CCC(=O)O)C(=O)N[C@@H](Cc1ccccc1)C(=O)N[C@@H](C)C(=O)N[C@@H](CCC(N)=O)C(=O)N[C@@H](CCCCN)C(=O)N[C@H]1CSSC[C@@H](C(=O)N[C@@H](Cc2ccccc2)C(=O)N[C@@H](CO)C(N)=O)NC(=O)[C@H](CCCCN)NC(=O)[C@H](CC(C)C)NC1=O; listed as Homo sapiens) [SEQ ID NO: 69]”, for which, in data set [2], the “helicity (CD spectra)” value is “significant helicity”; the “negative CD signal between 200 nm and 230 nm” value is recorded as −5 to −10 Δε.

For “Ac-KQFIENGSEFAQKLLKKFS-NH2 (listed as Homo sapiens) [Lacripep]”, the “helicity (CD spectra)” value in data set [2] was “significant helicity”; in data set [1] (absence of 10 mM DPC) it was “little helicity”.

On to “Ac-KQFIENGSEFAQKLLKKFS-NH2 [modified acetate salt form] (also: acetate salt) [Lacripep with N-terminal acetylation and C-terminal amidation, acetate salt]”, for which the figures for the alpha helicity in data set [3] and in data set [4] were 29% and 28%, respectively.

With “Ac-KQFIENGSEFAQKLLKKFS-NH2 [modified dpC form] (also: dpC form) [terminally modified Lacripep constrained with 10 mM dodecylphosphocholine]”, in data set [4], the alpha helicity is on record as 100% and the irregular was determined as 0%.

As to “KQFIENGSEFAQKLLKKFS [unmodified acetate salt form] (not fully specified (N-terminus, C-terminus); also: acetate salt) [Lacripep without N-terminal acetylation and C-terminal amidation, acetate salt]”, the alpha helicity turned out to be 28% in data set [3] and 27% in data set [4].

Regarding “KQFIENGSEFAQKLLKKFS [unmodified dpC form] (not fully specified (N-terminus, C-terminus)) [unmodified Lacripep constrained with 10 mM dodecylphosphocholine]”, in data set [4], the alpha helicity is listed as 92% and the irregular stood at 8%.
